# Measurements as given in publication PMC9692665 (2022).
# Molecular target: Echovirus 3 (E3) mature full (F-) particle, genotype HNWY-01 strain (Echovirus 3 (genotype HNWY-01 strain))
# Test: SPR
binder,measurement,value
"monoclonal antibody 6D10 IgG (antibody, V domains shown) VH: EVQLQQSGPELARPWASVKISCQAFYTFSNYGMQWVKQSPGQGLEWIGPFYPGNADTSYNQKFKGKATLTADKSSSTAYMQFSSLTSEDSAVYYCARVVATTDFDYWGQGTTVTVSS VL: not shown",koff,5.1e-05 s⁻¹
